Tests used:
[1] = target: mouse trkC (on E11 mouse trigeminal neurons) (mouse) (UniProt Q6VNS1); assay: cell-based or functional assay
[2] = target: rat trkC (on E12 rat trigeminal neurons) (rat) (UniProt Q03351); assay: cell-based or functional assay
Chain of rat trkC (on E12 rat trigeminal neurons) (rat) (Q03351 32-864): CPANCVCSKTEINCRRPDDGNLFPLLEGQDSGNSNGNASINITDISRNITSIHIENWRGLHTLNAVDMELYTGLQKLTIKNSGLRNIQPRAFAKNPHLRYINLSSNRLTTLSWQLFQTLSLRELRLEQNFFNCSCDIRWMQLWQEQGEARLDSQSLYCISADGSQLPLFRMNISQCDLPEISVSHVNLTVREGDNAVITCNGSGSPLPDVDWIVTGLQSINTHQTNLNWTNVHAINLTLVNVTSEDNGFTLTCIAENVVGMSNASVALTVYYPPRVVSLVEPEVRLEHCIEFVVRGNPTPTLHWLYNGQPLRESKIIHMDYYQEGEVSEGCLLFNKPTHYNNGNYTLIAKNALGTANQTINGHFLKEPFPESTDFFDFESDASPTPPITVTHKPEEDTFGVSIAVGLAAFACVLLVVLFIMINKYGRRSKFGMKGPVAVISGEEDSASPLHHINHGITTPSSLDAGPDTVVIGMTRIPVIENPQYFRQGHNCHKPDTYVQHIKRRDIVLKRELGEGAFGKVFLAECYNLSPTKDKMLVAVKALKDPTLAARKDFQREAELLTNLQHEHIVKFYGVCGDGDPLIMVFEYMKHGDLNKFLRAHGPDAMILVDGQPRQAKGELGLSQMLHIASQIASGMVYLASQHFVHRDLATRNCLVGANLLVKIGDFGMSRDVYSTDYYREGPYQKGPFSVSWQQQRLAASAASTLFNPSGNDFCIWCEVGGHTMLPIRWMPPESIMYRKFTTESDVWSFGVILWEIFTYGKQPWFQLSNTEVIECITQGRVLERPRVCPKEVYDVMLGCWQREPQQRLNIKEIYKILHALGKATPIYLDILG

Chain of mouse trkC (on E11 mouse trigeminal neurons) (mouse) (Q6VNS1 32-825): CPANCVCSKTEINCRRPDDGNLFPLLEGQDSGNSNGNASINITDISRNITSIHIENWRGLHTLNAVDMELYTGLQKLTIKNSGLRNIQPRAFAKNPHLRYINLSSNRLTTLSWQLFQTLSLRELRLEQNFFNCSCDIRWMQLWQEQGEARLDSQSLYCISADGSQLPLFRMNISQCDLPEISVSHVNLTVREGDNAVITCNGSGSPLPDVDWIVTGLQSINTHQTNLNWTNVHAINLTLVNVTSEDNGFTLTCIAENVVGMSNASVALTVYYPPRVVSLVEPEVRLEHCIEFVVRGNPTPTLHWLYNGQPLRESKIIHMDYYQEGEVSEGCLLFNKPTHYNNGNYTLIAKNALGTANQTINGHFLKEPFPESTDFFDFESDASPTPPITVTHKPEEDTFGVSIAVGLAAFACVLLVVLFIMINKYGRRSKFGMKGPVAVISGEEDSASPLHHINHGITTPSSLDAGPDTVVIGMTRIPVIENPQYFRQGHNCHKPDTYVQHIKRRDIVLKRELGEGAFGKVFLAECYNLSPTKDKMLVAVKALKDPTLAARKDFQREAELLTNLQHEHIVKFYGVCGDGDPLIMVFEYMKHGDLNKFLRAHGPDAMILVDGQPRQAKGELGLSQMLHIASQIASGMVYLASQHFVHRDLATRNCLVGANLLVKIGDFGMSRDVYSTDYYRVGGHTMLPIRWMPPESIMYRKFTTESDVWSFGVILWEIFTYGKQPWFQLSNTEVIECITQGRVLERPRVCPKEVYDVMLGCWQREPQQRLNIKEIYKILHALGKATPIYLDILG

neurotrophin-3 (NT-3) (ligand)
survival of trigeminal neurons after 24 hours in culture [1]: 0.08 ng/mL | survival of trigeminal neurons after 24 hours in culture [2]: 0.08 ng/mL
